Assay results published in patent US20080071063A1.

Columns and labels:
FcγRIIIA [1] = biological target: FcγRIIIA (UniProt P08637); test: assay not described; affinity relative to wild type Medi3
FcγRIIIA [2] = biological target: FcγRIIIA (UniProt P08637); test: assay not described; affinity relative to wild type Medi2

Sequence of UniProt P08637 (P08637 17-208 limits assumed): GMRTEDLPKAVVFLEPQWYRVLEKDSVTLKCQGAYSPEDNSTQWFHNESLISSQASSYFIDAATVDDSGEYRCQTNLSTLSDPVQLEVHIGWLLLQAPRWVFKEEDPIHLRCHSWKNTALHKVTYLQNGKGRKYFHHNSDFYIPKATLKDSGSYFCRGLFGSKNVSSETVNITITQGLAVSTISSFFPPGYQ

**Q.** How did the fold higher binding affinity than Medi3 (FcγRIIIA [1]) turn out when “Medi3-V1 (Fc variant of anti-EphA2 antibody Medi3, glutamate at residue 332)” was run?
**A.** 8.8 fold

**Q.** Which fold higher binding affinity than Medi2 (FcγRIIIA [2]) does the source give for “Medi2-V3 ("V3" Fc variant of anti-Integrin αVβ3 antibody Medi2, aspartate 239, leucine 330, glutamate 332)” here?
**A.** 78 fold
